Source: US20260092920A1 (FIBROINOVA BIOMEDICAL TECHNOLOGY GUANGZHOU, published 2026)

Molecular target: T1, His-tagged extracellular domain of antigen DDR2 (human, UniProt Q16832 22-399)
T1 construct: range 22-399; Captured on Ni-NTA sensors in BLI; also called extracellular domain protein of the DDR2 antigen; DDR2 antigen; not shown: His tag
T1 sequence (looked up): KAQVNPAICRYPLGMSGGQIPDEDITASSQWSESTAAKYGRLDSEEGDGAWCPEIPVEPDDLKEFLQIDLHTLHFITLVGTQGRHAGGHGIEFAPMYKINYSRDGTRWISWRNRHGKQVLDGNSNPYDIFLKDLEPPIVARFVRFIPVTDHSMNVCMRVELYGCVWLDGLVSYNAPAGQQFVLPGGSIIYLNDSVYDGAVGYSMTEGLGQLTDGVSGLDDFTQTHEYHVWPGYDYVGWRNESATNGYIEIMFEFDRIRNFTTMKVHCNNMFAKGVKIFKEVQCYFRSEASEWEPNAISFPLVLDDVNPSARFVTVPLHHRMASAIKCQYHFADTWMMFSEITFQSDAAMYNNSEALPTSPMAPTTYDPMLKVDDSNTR
Test: BLI (ForteBio), His-tagged DDR2 extracellular domain captured on Ni-NTA sensor, nanobody 100 nM to 3.125 nM in solution, 1:1 fit
Method: For the DDR2 nanobody 1A12 described above, based on the ForteBio bio-layer interferometry (BLI) platform for molecular interaction analysis, the affinity of the nanobody for the extracellular domain protein of the DDR2 antigen was analyzed and detected by determining the affinity of the antibody for the antigen by using the BLI method.
The kinetic curves were made, and the relevant parameters were calculated. Appropriate binding and dissociation curves of several concentration gradients were selected. All the curves were fitted using the 1:1 binding model. Three curves with the best fitting degrees were selected for plotting and analysis. Finally, important parameters such as affinity value, binding constant, and dissociation constant were obtained.

B1: DDR2 nanobody 1A12 (VHH)
VHH: EVQLVESGGGLVQPGGSLRLSCAASGYILSPNVMGWFRQAPGKGRELVAAISWGDGRTYYPDSVEGRFTISRDNAKRMVYLQMNSLRAEDTAVYYCAASRKGYPSTRSDPYNYWGQGTQVTVSS
notes: VHH of an alpaca heavy chain antibody raised against the human DDR2 extracellular domain; Expressed and purified; also called Nb-DDR2; 1A12-VHH
Kd: 4.36 nM
